The results in this text go back to patent US20250002610A1 (Genmab, published 2025).

Test [1] deals with T1, human DR4 (Death Receptor 4), cell surface expressed on human tumor cell lines (human, UniProt O00220 24-468).
T1 construct: also called TNFRSF10A; TRAIL-R1
T1 sequence: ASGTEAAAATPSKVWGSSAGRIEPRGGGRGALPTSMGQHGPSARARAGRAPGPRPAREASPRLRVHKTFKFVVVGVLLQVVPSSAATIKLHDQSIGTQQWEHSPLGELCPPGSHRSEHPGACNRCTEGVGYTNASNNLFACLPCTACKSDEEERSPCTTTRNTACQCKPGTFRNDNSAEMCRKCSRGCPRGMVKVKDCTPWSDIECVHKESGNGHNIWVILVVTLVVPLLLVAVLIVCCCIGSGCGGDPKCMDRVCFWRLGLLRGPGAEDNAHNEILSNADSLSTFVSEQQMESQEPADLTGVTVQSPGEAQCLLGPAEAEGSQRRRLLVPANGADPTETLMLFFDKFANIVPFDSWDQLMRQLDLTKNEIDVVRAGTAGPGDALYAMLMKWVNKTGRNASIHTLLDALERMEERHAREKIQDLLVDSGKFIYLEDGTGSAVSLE
The test is described as follows: flow cytometry on MDA-MB-231 cells (endogenous DR4), antibody incubated at 37 °C, gMFI PE. The procedure:
Binding of C1q to membrane-bound BisG1-FAPα-FERL/DR4-FERR was assessed by flow cytometry. MDA-MB-231 cells were harvested as described in Example 3, plated (50,000 cells/well) in round-bottom 96-well plates and incubated with a concentration range of BisG1-FAPα-FERL/DR4-FERR or IgG1-b12-FER control antibody (0.003-30 μg/mL in threefold increments) at 37° C. for 30 min. To assess C1q binding, normal human serum (NHS) (Sanquin, final concentration 20%) was added as a source of C1q and the mixture was incubated at 4° C. for 45 min. Cells were washed twice with FACS buffer (PBS [Lonza, Cat. #BE17-517Q] supplemented with 0.1% [w/v] BSA [Roche, Cat. #10735086001] and 0.02% [w/v] sodium azide [NaN3; bioWORLD, Cat. #41920044-3]) and subsequently incubated with FITC-conjugated rabbit anti-human C1q antibody (DAKO, Cat. #F0254; 1:100 in FACS buffer) at 4° C. for 30 min, protected from light. Within the same experiment, binding of the DR4-antibodies to the MDA-MB-231 cells was confirmed in parallel samples after the incubation with serial dilutions of the tested antibodies.
In general terms: A flow cytometer gives signals particle by particle.

Test [2] deals with T2, rat FAPα on Expi293F cells (rat (Rattus norvegicus), UniProt P97321 1-761 (mouse entry)).
T2 chain: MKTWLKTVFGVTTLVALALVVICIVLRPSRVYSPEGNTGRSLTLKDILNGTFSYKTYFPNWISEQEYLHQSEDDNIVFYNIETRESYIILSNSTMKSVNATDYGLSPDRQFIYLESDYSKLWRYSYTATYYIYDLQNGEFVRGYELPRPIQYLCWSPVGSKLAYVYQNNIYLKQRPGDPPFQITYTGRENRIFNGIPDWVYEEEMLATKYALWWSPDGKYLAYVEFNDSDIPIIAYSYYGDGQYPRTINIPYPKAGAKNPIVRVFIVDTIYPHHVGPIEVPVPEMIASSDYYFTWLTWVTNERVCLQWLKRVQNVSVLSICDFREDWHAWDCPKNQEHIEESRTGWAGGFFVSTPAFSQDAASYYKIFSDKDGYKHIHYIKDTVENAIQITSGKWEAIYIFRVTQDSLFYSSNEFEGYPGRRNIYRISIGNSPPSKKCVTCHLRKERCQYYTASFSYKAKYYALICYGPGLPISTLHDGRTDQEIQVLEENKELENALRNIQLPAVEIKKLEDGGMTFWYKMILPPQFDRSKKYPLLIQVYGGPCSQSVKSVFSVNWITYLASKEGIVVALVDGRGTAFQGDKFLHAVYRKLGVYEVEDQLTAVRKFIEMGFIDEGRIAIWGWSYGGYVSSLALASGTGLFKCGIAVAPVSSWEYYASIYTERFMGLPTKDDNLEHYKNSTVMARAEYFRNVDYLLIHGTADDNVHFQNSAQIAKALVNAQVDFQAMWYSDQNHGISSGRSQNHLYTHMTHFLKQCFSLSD
Description: flow cytometry on Expi293F cells transiently expressing rat FAPα, gMFI PE. As for the experimental part:
Binding of BisG1-FAPα-FERL/DR4-FERR, BisG1-FAPα-FEAL/b12-FEAR and IgG1-FAPα-FERL to FAPα of species commonly used for nonclinical toxicology studies was assessed by flow cytometry using Expi293F cells transiently expressing FAPα from different animal species. IgG1-b12 was included as negative control.
Expi293F cells expressing recombinant FAPα from various species (human, cynomolgus monkey, dog, pig, rat or mouse) were seeded (20,000 cells/well) in 96-Well round bottom plates (Greiner Bio-one, Cat #650101). Antibody dilutions were prepared using FACS buffer, consisting of PBS (Capricorn Scientific, Cat #PBS-10XA, diluted to 1×PBS in distilled water)+1% BSA (Roche, Cat #10735086001)+0.02% Sodium Azide (Bio-World, Cat #41920044-3). Plates were centrifuged, supernatant was removed, and cells were resuspended in 100 μL of antibody dilutions (concentration range 30-0.00017 μg/mL with three-fold serial dilutions using FACS buffer) of BisG1-FAPα-FERL/DR4-FERR, BisG1-FAPα-FEAL/b12-FEAR, IgG1-FAPα-FERL and IgG1-b12 and incubated for 30 min at 4° C. […] Antibody binding to viable cells (gMFI of PE on TO-PRO-3 negative cells) was analyzed by flow cytometry on a FACS Celesta and FACS_Diva software (first two experiments) or iQue® 3 and FlowJo software (last experiment). gMFI was determined and visualized using GraphPad Prism. Binding curves were analyzed using nonlinear regression analysis. […]

B1: BisG1-FAPα-FERL/DR4-FERR (bispecific antibody, human IgG1, kappa, lambda)
heavy 1: EVQLLESGGGLVQPGGSPRLSCEASGFTFSSYALSWVRQAPGKGLEWVSAISGSGGGRYYADSVKGRFTISRDNSKNTLFLQMNSLRAEDTAVYYCAKEGYSSSGTYWDHWGQGTLVTVSSASTKGPSVFPLAPSSKSTSGGTAALGCLVKDYFPEPVTVSWNSGALTSGVHTFPAVLQSSGLYSLSSVVTVPSSSLGTQTYICNVNHKPSNTKVDKRVEPKSCDKTHTCPPCPAPEFERGPSVFLFPPKPKDTLMISRTPEVTCVVVDVSHEDPEVKFNWYVDGVEVHNAKTKPREEQYNSTYRVVSVLTVLHQDWLNGKEYKCKVSNKALPAPIEKTISKAKGQPREPQVYTLPPSREEMTKNQVSLTCLVKGFYPSDIAVEWESNGQPENNYKTTPPVLDSDGSFLLYSKLTVDKSRWQQGNVFSCSVMHEALHNHYTQKSLSLSPG
light 1: AIQMTQSPSSVSASVGDRVTITCRASQGVSSWLAWYQQKPGRAPKLLIYVASTLQSGVPSRFSGSGSGTDFTLTINSLQPEDFATYYCQQANSFPPTFGQGTRLEMKRTVAAPSVFIFPPSDEQLKSGTASVVCLLNNFYPREAKVQWKVDNALQSGNSQESVTEQDSKDSTYSLSSTLTLSKADYEKHKVYACEVTHQGLSSPVTKSFNRGEC
heavy 2: QVQLQESGPGLVKPSGTLSLTCAVSGGSISSYSWWSWIRQPPGKGLEWIGELYHSGSTNYNPSLKSRVTISVDKSKNQFSLKLRSVTAADTAVYYCVRGVATIDYWGQGTLVTVSSASTKGPSVFPLAPSSKSTSGGTAALGCLVKDYFPEPVTVSWNSGALTSGVHTFPAVLQSSGLYSLSSVVTVPSSSLGTQTYICNVNHKPSNTKVDKRVEPKSCDKTHTCPPCPAPEFERGPSVFLFPPKPKDTLMISRTPEVTCVVVDVSHEDPEVKFNWYVDGVEVHNAKTKPREEQYNSTYRVVSVLTVLHQDWLNGKEYKCKVSNKALPAPIEKTISKAKGQPREPQVYTLPPSREEMTKNQVSLTCLVKGFYPSDIAVEWESNGQPENNYKTTPPVLDSDGSFFLYSRLTVDKSRWQQGNVFSCSVMHEALHNHYTQKSLSLSPG
light 2: QSALTQPPSASGSPGQSVTISCTGTSSDVGGYNFVSWYQQDPGKAPKLLIYEVTKRPSGVPDRFSGSKSGNTASLTVSGLQAEDEADYYCSSYAGSNNVMFGGGTKLTVLGQPKAAPSVTLFPPSSEELQANKATLVCLISDFYPGAVTVAWKADSSPVKAGVETTTPSKQSNNKYAASSYLSLTPEQWKSHRSYSCQVTHEGSTVEKTVAPTECS
notes: Human IgG1 bispecific made by controlled Fab-arm exchange of IgG1-FAPα-FERL and IgG1-DR4-FERR; monovalent for FAPα and for DR4; also called GEN1057
For the molecule B1, the EC50 (read off the curve) (commonly the concentration needed to bring the measured effect to its halfway point) in test [1] was roughly 0.5 µg/mL.

B2: IgG1-FAPα-FERL (antibody)
heavy: B1 heavy 1
light: B1 light 1
notes: Bivalent monoclonal IgG1 kappa
Turning to B2, the “EC50 (read off the curve)” value in test [2] is roughly 0.2 µg/mL.
